Data from the nanobody polyreactivity screen of Harvey et al. (2022).

Experiment: yeast display, Sf9 membrane polyspecificity reagent, FACS + sequencing; frameworks hold sequencing errors
Method in brief: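 Galactose-induced (36–48 hours) yeast carrying a synthetic nanobody display library were exposed to 10% biotinylated, detergent-solubilized Sf9 membrane reagent at 4 °C for 1 hour. FACS followed streptavidin microbead enrichment, using low and high (top ~1%) gates for expression (anti-HA) and reagent binding (streptavidin). Colony PCR, MiSeq 2 × 250 sequencing and CDR-length filtering followed. Labels for polyreactivity reflect the gate of origin.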

Sequence | polyreactivity (PSR sort gate)
QVQLVESGGGLVQAGGSLRLSCAASGNILAWYAMGWYRQAPGKERELVADISSRGGSTYYADSVKRRFTISRDNAKYTVYLQMKSLKPEDTAVYYCAAVWYWNQDYEYWGQGTQVTVSS | low polyreactivity
QVQLVESGGGLVQAGGSLRLSCAASGNILHYYTMGLYRQAPGKETELVARINYSTGSTYYADSVKGRFTISRDNAKNTVYLQMNSLKPEDTAVYYCAAEKERDEEYDYWGQGTQVTVSS | low polyreactivity
QVQLVESGGGLVQAGGSLRLSCAASGNILIGNVMGWYRQAPGKERELVAAITSGGDTYYADSVKGRFTISRDNAKNTVYLQMNSLKPEDTAVYYCNAYYYFWGQGTQVTVSS | low polyreactivity
QVQLVESGGGLVQAGGSLRLSCAASGNILRYAMGWYRQAPGKERELVARISWRGGSTYYADSVKGRFTISRDNAKNTVYLQMNSLKPEDTAVYYCNKAYLGGGWQKTYDYWGQGTQVTVSS | high polyreactivity
QVQLVESGGGLVQAGGSLRLSCAASGNILYANAMGWYRQAPGKERELVATINVSADSTYADSVKGRFTISRDNAKNTVYLQMNRLNPEDTAVYYCNAYGLYEKWGPWTVPYYYWGQVTQVTVSS | low polyreactivity
QVQLVESGGGLVQAGGSLRLSCAASGNILYDNAMGSYRQAPGKERELVAAIDWSGGSTYYADSVKGRFTISRDNAKNTVYLQMNSLKPEDTAVYYCAAESYIGKYGSYDYWGLGTQVTVSS | low polyreactivity
QVQLVESGGGLVQAGGSLRLSCAASGNILYFYDMGRYRQAPGKERELVAVITGGGGSTYYADSVKGRYTISRDNAKNTVYLQMNRLKPEDTAVYYWAALPWFPDEEYDYWGHGTQVTVSS | high polyreactivity
QVQLVESGGGLVQAGGSLRLSCAASGNISWYNAMGWYRQAPGKERELVAAITSSGSGTYYADSVKGRFTISRDNAKHTVYLQMNSLKPEDTAVYYCIADNAIRYDYWGQGTQVTVSS | high polyreactivity
QVQLVESGGGLVQAGGSLRLSCAASGNIVGSNAMGWYRQAPGKERELVAAISKSGGRTYYADSVKGRFTISRDNAKNTVYLQMNSLKPEDTAVYYCAAYDGYYEFDYWGQGTQVTVSS | low polyreactivity
QVQLVESGGGLVQAGGSLRLSCAASGNIYRYYVMGWYRQAPGKEREFVAAITSSGGSTYYADSVKGRFTISRDNAKNTVYLQMNSLKPEDTAVFYCAKDYGDPGWAEYDYWGQGTQVTVSS | low polyreactivity
QVQLVESGGGLVQAGGSLRLSCAASGNMFGYYAMGWYRQAPGKERELVARITSGGTTNYADSVKGRFTISRDNAKNTVYLQMNRLKPEDTAVYYCNKDWRRYWLRGDYWGQGTQVTVSS | low polyreactivity
QVQLVESGGGLVQAGGSLRLSCAASGNNFGNNAMGWYRQAPGKERELVAAISSSGTSTYYADSVKGRFTISRDNAKNTVYLQMNSLKPEDTSVYYCNADPLPYDGYYDYDYWGQGTEVTVSS | low polyreactivity
QVQLVESGGGLVQAGGSLRLSCAASGNSFYFYAMGWYRQAPGKERELVAAIDLTDGSTYYADSVKGRFTISRDNAKNTVYLQMNSLKPEDTAVYYCAADWVTFYSYTEYDYWGLGTQVTVSS | low polyreactivity
QVQLVESGGGLVQAGGSLRLSCAASGNSFYSYAMGRYRQAPGKERELVAAITIDGSTTYADSVKGRFTISRDNAKNTVYLQMNSLKPEDTAVSYCNADGFTSDPYDSDDWGQGTLVTVSS | low polyreactivity
QVQLVESGGGLVQAGGSLRLSCAASGNTFAYNTMGWYRQAPGKERELVAAIRTRGGSTYYADSVKGRFTISRDNAKNTVYLQMNSLKPEDTAVYYCAADYRYHGYWSYDYWGQGTQVTVSS | low polyreactivity
QVQLVESGGGLVQAGGSLRLSCAASGNTFDGYDMGWYRQAPGKERELVAAITNTGASTYYADSVKGRFTISRDNAKNTVYLQMNSLKPEDTAVYYCNAQDSYPEDRHGMSYWGQGTQVTVSS | low polyreactivity

Sequence | polyreactivity (PSR sort gate)
QVQLVESGGGLVQAGGSLRLSCAASGNTFDGYDMGWYRQAPGKERELVAAITNTGASTYYADSVKGRFTISRDNAKNTVYLQMNSLKPEDTAVYYCTAQDSYPEDRHGMSYWGQGTQVTVSS | low polyreactivity
QVQLVESGGGLVQAGGSLRLSCAASGNTFDRNAMGWYRQAPGKERELVAGISWRGGSTYYADSVKGRFTISRDNAKNTVYLQMNSLKPEDTAVYYCAAQRRYSTITGYGSWGQGTQVTVSS | high polyreactivity
QVQLVESGGGLVQAGGSLRLSCAASGNTFDYYAMGWYRQAPGKERELVAAITRGGSTNYADSVKGRFTISRDNAKNTVSLQMNSLKPEDTAVYYCAAEQRAPRFADYDYWGQGTQVTVSS | low polyreactivity
QVQLVESGGGLVQAGGSLRLSCAASGNTFFDYDMGWYRQAPGKERELVATITNSGTSTYYTDSVKGRFTISRDNAKNTVYLQMNSLKPEDTAVYYCAADLFYAVLGNEYDYWGQGTQVTVSS | high polyreactivity
QVQLVESGGGLVQAGGSLRLSCAASGNTFFLYAMGWYRQAPGKERELVAVISASGGSTYFADSVKGRFTISRDNAKNTVYLQMNSVKPEDTAVYYCAKTPRTYYRYRNAFHYYYWGQGTQVTVSS | high polyreactivity
QVQLVESGGGLVQAGGSLRLSCAASGNTFGDNAMGWYRQAPGKERELDAAISTGGNTYYADSVKGRFTISRDNAKNSVYLQMNSLKPEDTAVYYCNAKWIPDTLFGIHETEGDYWGQGTQVTVSS | low polyreactivity
QVQLVESGGGLVQAGGSLRLSCAASGNTFGFYAMGWYRQAPGKERELVAGITSGDSTYYADSVKGRFTISRDNEKNTVYLQMNSLKPVDTAVYYCNADFTDSYWSRYDYWGQGTQVTVSS | low polyreactivity
QVQLVESGGGLVQAGGSLRLSCAASGNTFGGYAMGWYRQAPGKERELVAAIRYSGTSTYYADSVKGRFTISRDNAKNTVYLQMNSLKPEDTAVYYCAATYTRVPNRFYYWGQGTQVTVSS | high polyreactivity
QVQLVESGGGLVQAGGSLRLSCAASGNTFGNYGKGWYRQAPGKEREFVAAITSRGTSTYYADSVKGRFTISRDNAKNTVYLQMNSLKPEDTAVYYCNARPRYKYPRYDYWGQGTQVTVSS | high polyreactivity
QVQLVESGGGLVQAGGSLRLSCAASGNTFGRYAMGWYRQAPGKERELVAAITKRGGTTYYADSVKGRFTISRDNAKNTVYLKMNSLKPEDTAVYYCAAKRSVLRTADYDYWGQGTQVTVSS | high polyreactivity
QVQLVESGGGLVQAGGSLRLSCAASGNTFGTYVMGWYRPAPGKERELVAAISQSGGSTDYADSVKGRFTISRDNAKYTVYLQMNSLKPEETAVYYCAKVTWGTVWYRSPSEYDYWGQGTQVTVSS | low polyreactivity
QVQLVESGGGLVQAGGSLRLSCAASGNTFHPYAMGWYRQAPGKVRELVAAITKSGGSTYYADSVKGRFTISRDNAKNTVYLQMNSLKPEDTAVYYCATDGYEYTDYGSSGYDYWGQGTQVTVSS | low polyreactivity
QVQLVESGGGLVQAGGSLRLSCAASGNTFHSNAMGWYRQAPGKERELVAAITPSDGDTYYADSVKGRFTISRDNAKNTVYLQMNSLKPEDTSVYYCAAEDDPGEYEYWGQGTQVTVSS | low polyreactivity
QVQLVESGGGLVQAGGSLRLSCAASGNTFKGYAMGWYRQAPGKERELVAAISWSGSSTYYADSVKGRFTISRDNAKNTVYVQMISLKPEDTAVYYCNRKYLGRYASVYGYGYWGQGTQVTVSS | high polyreactivity
QVQLVESGGGLVQAGGSLRLSCAASGNTFLRNTMGWYRQAPGKERELVAAISWGGGTTYYADSVKGRFTISRDNAKNTVYLQINSLKPEDSAVYYCNARYYSRRGNSWGQGTQVTVSS | high polyreactivity
QVQLVESGGGLVQAGGSLRLSCAASGNTFLRYAMGWYRQAPGKERELVAAISTSGDSTYYADSVKGRFTISRDNAKNTVYLQMNSLKPEDTAVYYCAAAWYIHTIAYGCWGQGTQVTVSS | high polyreactivity
